From article PMC3100323 come the findings set out here.

This data set addresses T1, rCmeR C69S/C166S C69S;C166S (Campylobacter jejuni NCTC 11168?) (UniProt Q0PBE2).
T1 sequence: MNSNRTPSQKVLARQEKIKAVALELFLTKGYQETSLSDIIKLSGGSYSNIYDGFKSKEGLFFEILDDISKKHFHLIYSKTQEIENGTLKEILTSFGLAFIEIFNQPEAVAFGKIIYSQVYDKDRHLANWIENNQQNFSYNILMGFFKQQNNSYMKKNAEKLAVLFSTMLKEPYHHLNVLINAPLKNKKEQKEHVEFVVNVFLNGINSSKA
The experiment in a line: EMSA. The conditions noted are these: 20 mM HEPES pH 7.6, 1 mM EDTA, 10 mM ([…], room temperature 30 min. A general note: Mobility shift assays separate free from complexed probe on a gel.

As for “AGGCTTTGTATTAGCTCCTATGCTTATTTAAATCAAACCCTAGGTTTTTCTCTCCTAGGGTTAAAATTTTTTCATTAGTTTTTAAGTATATACTACGCTATAATATTCATTTTTAATTTTCTTTAAGAAAGGAATTTAATGAAGATAAAAGTTGGGTTGATTTTTTCAGGTATTGCTTG (double strand) [cj0089 promoter (lipoprotein operon), 179 bp]”, the binding result is “binds more weakly”.
